Laboratory results taken from patent US20090312247.

Experiments:
[1] = test system: FLAG-epitope tagged NPRA stably over-expressed in HEK293 cells (HEK-NPRA cells)
[2] = test system: 5'-FLAG epitope-tagged sNRF^(806-900)
[3] = test system: full-length NPRA (SEQ ID NO: 2)
Chain of full-length NPRA (SEQ ID NO: 2) (chain, as listed by the source): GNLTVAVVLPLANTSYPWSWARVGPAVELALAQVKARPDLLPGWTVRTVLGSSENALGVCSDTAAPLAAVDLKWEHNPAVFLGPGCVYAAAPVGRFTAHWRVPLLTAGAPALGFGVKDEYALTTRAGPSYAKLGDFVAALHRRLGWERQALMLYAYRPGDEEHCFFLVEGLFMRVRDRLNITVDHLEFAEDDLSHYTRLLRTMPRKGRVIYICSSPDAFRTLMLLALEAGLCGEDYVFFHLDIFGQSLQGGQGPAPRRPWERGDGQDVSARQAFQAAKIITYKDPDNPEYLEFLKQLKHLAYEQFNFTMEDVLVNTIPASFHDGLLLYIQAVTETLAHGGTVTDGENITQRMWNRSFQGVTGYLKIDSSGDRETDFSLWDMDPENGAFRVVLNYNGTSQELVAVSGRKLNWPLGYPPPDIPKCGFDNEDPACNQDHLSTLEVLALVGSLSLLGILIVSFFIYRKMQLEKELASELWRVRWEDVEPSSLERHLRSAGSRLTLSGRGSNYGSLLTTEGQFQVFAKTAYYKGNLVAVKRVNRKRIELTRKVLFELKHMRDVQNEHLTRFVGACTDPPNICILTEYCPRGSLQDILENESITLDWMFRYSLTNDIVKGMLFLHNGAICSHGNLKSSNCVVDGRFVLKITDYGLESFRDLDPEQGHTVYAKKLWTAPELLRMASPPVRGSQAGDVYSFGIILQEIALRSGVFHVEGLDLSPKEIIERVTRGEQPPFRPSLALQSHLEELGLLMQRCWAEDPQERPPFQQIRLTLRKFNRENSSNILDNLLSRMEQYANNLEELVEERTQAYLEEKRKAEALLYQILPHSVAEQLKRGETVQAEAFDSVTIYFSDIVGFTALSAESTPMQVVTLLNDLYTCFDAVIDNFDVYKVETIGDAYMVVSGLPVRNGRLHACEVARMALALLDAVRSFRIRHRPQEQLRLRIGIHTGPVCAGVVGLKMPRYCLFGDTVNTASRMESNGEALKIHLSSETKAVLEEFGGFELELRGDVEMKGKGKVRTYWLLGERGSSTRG

Chain of 5'-FLAG epitope-tagged sNRF^(806-900) (chain, as listed by the source): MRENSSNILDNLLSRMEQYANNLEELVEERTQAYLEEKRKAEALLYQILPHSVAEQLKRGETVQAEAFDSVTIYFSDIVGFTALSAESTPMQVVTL

cGMP-dependent protein kinase I (PKG) in HEK-NPRA cells
ANP-induced phosphorylation of a 137-kD protein ([35S]ATPγS, autoradiography) [1]: Robust phosphorylation of a 137-kD protein occurred in the NPRA-expressing cells, but not in control cells

cGMP-dependent protein kinase I (PKG), endogenous in neonatal rat cardiac fibroblasts
ANP-induced NPRA phosphorylation in cardiac fibroblasts ([35S]ATPγS incorporation) [2]: both KT5823 or expressed sNRF^(806-900) protein reduced ANP-induced NPRA phosphorylation to control levels

recombinant PKG
phosphorylation ([35S]ATPγS incorporation, autoradiography of Cos7 membrane lysates) [3]: SDS page gels demonstrated a phosphorylated 137 kD protein that corresponded to full-length NPRA
